Measured values published in FireProtDB (doi:10.1021/bi00358a035).
Where “and” joins values, the source holds several entries; their conditions need not be identical. Equal values may be shown once.

Settings: Escherichia coli (strain K12); pH 7.8; 25 °C; Urea; CD; Potassium phosphate 10 mM; transition: 3; reversible: yes (>90%); whole UniProt chain shown

B1: Tryptophan synthase alpha chain wild type, P0A877 (protein)
chain: MERYESLFAQLKERKEGAFVPFVTLGDPGIEQSLKIIDTLIEAGADALELGIPFSDPLADGPTIQNATLRAFAAGVTPAQCFEMLALIRQKHPTIPIGLLMYANLVFNKGIDEFYAQCEKVGVDSVLVADVPVEESAPFRQAALRHNVAPIFICPPNADDDLLRQIASYGRGYTYLLSRAGVTGAENRAALPLNHLVAKLKEYNAAPPLQGFGISAPDQVKAAIDAGAAGAISGSAIVKIIEQHINEPEKMLAALKVFVQPMKAATRS
For B1, the denaturant m value was 2.2 kcal/mol/M and 1.2 kcal/mol/M, the “denaturant midpoint (higher = more stable)” value was 2.62 M and 4.18 M and the unfolding free energy was 5.7 kcal/mol and 5 kcal/mol.
